Experiment [1] has as its target purified recombinant mature TGFβ1 (expressed in CHO cells from the modified porcine TGFβ1 cDNA) (porcine) (UniProt P07200). The experiment is described as follows: surface plasmon resonance, steady state response, double reciprocal plot; x axis printed as 1/[TβRII] (µM-1), y axis 1/Binding RU.
The target is the same in experiment [2]. Kind of experiment: SPR (BIAcore 3000); TGFβ1 immobilised on a CM5 chip, TβRII 150 nM to 0.6 nM as analyte; steady state, linear regression of 1/Response versus 1/C; TGFβ1 immobilised on the chip, TβRII as analyte; steady state. For orientation: Surface plasmon resonance follows binding to a sensor surface in real time, without labels.

A word on the Kd: it is the concentration at which binding is half-saturated.

Chain of UniProt P07200 (P07200 279-390): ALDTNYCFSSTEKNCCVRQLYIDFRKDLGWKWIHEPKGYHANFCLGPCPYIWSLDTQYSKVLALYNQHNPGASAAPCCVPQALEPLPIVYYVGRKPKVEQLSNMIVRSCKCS

For the substance “TGFβ1 type II receptor (residues 22-136), refolded from inclusion bodies (from UniProt P37173 45-159)”, the intercept of the linear regression of 1/Binding RU against 1/[TβRII] in experiment [1] is 0.00102. Further, the Kd in experiment [2] came to 55 nM.
